Data: PMC6502846

What was measured:
[1] = target: C5b-8 initiator complex, comprised of C5b6 in complex with C7 and C8 (human) (UniProt P01031); test: rapid atomic force microscopy imaging; supported bilayers of E. coli lipid extract on mica; proteins injected one after the other in situ without wash steps, 80 nM C5b6, C7 and C8, 1.4 µM C9; 30 °C; 6.5 s per frame; 20 mM HEPES, 120 mM NaCl, pH 7.4; chamber passivated with BSA
[2] = target: C5b-8(C9)n (1 ≤ n < 18) (human) (UniProt P01031); test: as above

Chain of C9 (P02748 22-559): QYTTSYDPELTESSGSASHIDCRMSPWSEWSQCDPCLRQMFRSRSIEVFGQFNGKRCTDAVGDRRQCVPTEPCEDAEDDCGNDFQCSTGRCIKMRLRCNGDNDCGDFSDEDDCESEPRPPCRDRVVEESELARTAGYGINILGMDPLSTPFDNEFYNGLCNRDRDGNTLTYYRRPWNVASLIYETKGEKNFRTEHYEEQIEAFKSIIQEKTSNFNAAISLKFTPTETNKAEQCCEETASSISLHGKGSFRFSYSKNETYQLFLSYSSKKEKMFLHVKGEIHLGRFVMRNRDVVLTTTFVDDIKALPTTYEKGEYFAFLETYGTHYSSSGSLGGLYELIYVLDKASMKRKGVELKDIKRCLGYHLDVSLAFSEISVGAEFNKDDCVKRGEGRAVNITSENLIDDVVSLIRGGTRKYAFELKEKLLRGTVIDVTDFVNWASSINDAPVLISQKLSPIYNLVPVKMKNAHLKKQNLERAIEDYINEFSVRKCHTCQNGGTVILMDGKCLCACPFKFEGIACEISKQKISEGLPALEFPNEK

characteristic initiation time τ init [1]: 912 s
kon [1]: 780 M⁻¹ s⁻¹
kon [2]: 108000 M⁻¹ s⁻¹
τ olig, time to add 17 copies of C9 after the initiation event [2]: 112 s
τ+, average time per addition of each of the remaining 17 C9 subunits [2]: 6.6 s
Substance: C9 (from UniProt P02748 22-559) (natural protein)
